From paper PMC4894940, “The function of the two-pore channel TPC1 depends on dimerization of its carboxy-terminal helix” (Cellular and Molecular Life Sciences: CMLS, 2016)
Positions count from the first letter of the chain named. Numbers in names are those of the source.

B1: TPC1ΔC8: truncated TPC1 containing residues 1–725 (protein, UniProt Q94KI8 1-725, looked up, fragment)
chain: MEDPLIGRDSLGGGGTDRVRRSEAITHGTPFQKAAALVDLAEDGIGLPVEILDQSSFGESARYYFIFTRLDLIWSLNYFALLFLNFFEQPLWCEKNPKPSCKDRDYYYLGELPYLTNAESIIYEVITLAILLVHTFFPISYEGSRIFWTSRLNLVKVACVVILFVDVLVDFLYLSPLAFDFLPFRIAPYVRVIIFILSIRELRDTLVLLSGMLGTYLNILALWMLFLLFASWIAFVMFEDTQQGLTVFTSYGATLYQMFILFTTSNNPDVWIPAYKSSRWSSVFFVLYVLIGVYFVTNLILAVVYDSFKEQLAKQVSGMDQMKRRMLEKAFGLIDSDKNGEIDKNQCIKLFEQLTNYRTLPKISKEEFGLIFDELDDTRDFKINKDEFADLCQAIALRFQKEEVPSLFEHFPQIYHSALSQQLRAFVRSPNFGYAISFILIINFIAVVVETTLDIEESSAQKPWQVAEFVFGWIYVLEMALKIYTYGFENYWREGANRFDFLVTWVIVIGETATFITPDENTFFSNGEWIRYLLLARMLRLIRLLMNVQRYRAFIATFITLIPSLMPYLGTIFCVLCIYCSIGVQVFGGLVNAGNKKLFETELAEDDYLLFNFNDYPNGMVTLFNLLVMGNWQVWMESYKDLTGTWWSITYFVSFYVITILLLLNLVVAFVLEAFFTELDLEEEEKCQGQDSQEKRNRRRSAGSKSRSQRVDTLLHHMLGDELSK
modifications: GFP fusion
B2: TPC1-3LA: leucines L714, 715, 719 of TPC1 replaced by alanine (protein, UniProt Q94KI8 1-733, looked up, variant L714A L715A L719A)
Two pore calcium channel …: MEDPLIGRDSLGGGGTDRVRRSEAITHGTPFQKAAALVDLAEDGIGLPVEILDQSSFGESARYYFIFTRLDLIWSLNYFALLFLNFFEQPLWCEKNPKPSCKDRDYYYLGELPYLTNAESIIYEVITLAILLVHTFFPISYEGSRIFWTSRLNLVKVACVVILFVDVLVDFLYLSPLAFDFLPFRIAPYVRVIIFILSIRELRDTLVLLSGMLGTYLNILALWMLFLLFASWIAFVMFEDTQQGLTVFTSYGATLYQMFILFTTSNNPDVWIPAYKSSRWSSVFFVLYVLIGVYFVTNLILAVVYDSFKEQLAKQVSGMDQMKRRMLEKAFGLIDSDKNGEIDKNQCIKLFEQLTNYRTLPKISKEEFGLIFDELDDTRDFKINKDEFADLCQAIALRFQKEEVPSLFEHFPQIYHSALSQQLRAFVRSPNFGYAISFILIINFIAVVVETTLDIEESSAQKPWQVAEFVFGWIYVLEMALKIYTYGFENYWREGANRFDFLVTWVIVIGETATFITPDENTFFSNGEWIRYLLLARMLRLIRLLMNVQRYRAFIATFITLIPSLMPYLGTIFCVLCIYCSIGVQVFGGLVNAGNKKLFETELAEDDYLLFNFNDYPNGMVTLFNLLVMGNWQVWMESYKDLTGTWWSITYFVSFYVITILLLLNLVVAFVLEAFFTELDLEEEEKCQGQDSQEKRNRRRSAGSKSRSQRVDTAAHHMAGDELSKPECSTSDT
modifications: C-terminal GFP
notes: leucines L714, 715, 719 of TPC1 replaced by alanine
B3: TPC1-S706D (protein, UniProt Q94KI8 1-733, looked up, variant S706D)
Two pore calcium channel …: B2 Two pore calcium channel … with S706D, A714L, A715L, A719L
B4: TPC1: wild type Arabidopsis two-pore channel TPC1 expressed as GFP-fusion in tpc1-2 background (protein)
chain: B2 Two pore calcium channel … with A714L, A715L, A719L
modifications: left off: Venus C-terminal half (VC, one copy) or Venus N-terminal half (VN, the other copy), C-terminal, kept
notes: wild type Arabidopsis two-pore channel TPC1 expressed as GFP-fusion in tpc1-2 background
B5: TPC1-S706A (protein, UniProt Q94KI8 1-733, looked up, variant S706A)
Two pore calcium channel …: B2 Two pore calcium channel … with S706A, A714L, A715L, A719L
B6: TPC1ΔC29: truncated TPC1 containing residues 1–704 (protein, UniProt Q94KI8 1-704, looked up, fragment)
chain: MEDPLIGRDSLGGGGTDRVRRSEAITHGTPFQKAAALVDLAEDGIGLPVEILDQSSFGESARYYFIFTRLDLIWSLNYFALLFLNFFEQPLWCEKNPKPSCKDRDYYYLGELPYLTNAESIIYEVITLAILLVHTFFPISYEGSRIFWTSRLNLVKVACVVILFVDVLVDFLYLSPLAFDFLPFRIAPYVRVIIFILSIRELRDTLVLLSGMLGTYLNILALWMLFLLFASWIAFVMFEDTQQGLTVFTSYGATLYQMFILFTTSNNPDVWIPAYKSSRWSSVFFVLYVLIGVYFVTNLILAVVYDSFKEQLAKQVSGMDQMKRRMLEKAFGLIDSDKNGEIDKNQCIKLFEQLTNYRTLPKISKEEFGLIFDELDDTRDFKINKDEFADLCQAIALRFQKEEVPSLFEHFPQIYHSALSQQLRAFVRSPNFGYAISFILIINFIAVVVETTLDIEESSAQKPWQVAEFVFGWIYVLEMALKIYTYGFENYWREGANRFDFLVTWVIVIGETATFITPDENTFFSNGEWIRYLLLARMLRLIRLLMNVQRYRAFIATFITLIPSLMPYLGTIFCVLCIYCSIGVQVFGGLVNAGNKKLFETELAEDDYLLFNFNDYPNGMVTLFNLLVMGNWQVWMESYKDLTGTWWSITYFVSFYVITILLLLNLVVAFVLEAFFTELDLEEEEKCQGQDSQEKRNRRRSAGS
modifications: C-terminal GFP

Key:
[1] = tested on: slow vacuolar (SV) currents in tpc1-2 vacuoles; experiment: Whole-vacuolar patch-clamp of TPC1 variants (SV currents); format: cell-based, Arabidopsis thaliana; settings: for whole-vacuolar SV currents: GFP-fusion in tpc1-2 vacuoles, 1 mM CaCl2 bath, pH 7.5; for reduction of whole-vacuolar current amplitude: relative to TPC1 wild type
Procedure: (§1) Expression of GFP-fusion proteins for electrophysiological measurements or confocal microscopy was performed in A. thaliana tpc1-2 mesophyll protoplasts as described. Briefly, leaves were enzymatically digested to release mesophyll protoplasts, which were then transformed by the polyethylene glycol method. Protoplasts were used for electrophysiological measurements and subcellular localization of GFP fluorescence 2–4 days after transformation.
(§2) Patch-clamp experiments were performed on transformed vacuoles harboring two-pore channels as identified by GFP fluorescence. The pipette (luminal) solution consisted of 100 mM K-gluconate, 2 mM MgCl2, 10 mM EGTA, 10 mM MES, pH 5.5/Tris. The bath (cytosolic) solution contained 50 mM K-gluconate, 1 mM CaCl2, 1 mM MgCl2, 2 mM DTT, 10 mM HEPES, pH 7.5/Tris. Solutions were adjusted to 430 mosmol/kg by adding D-sorbitol. For analysis of the TPC1-S706 mutants two further calcium concentrations of the bath solution were used in which 1 mM CaCl2 was substituted by 0.2 mM or 0.05 mM CaCl2, respectively. Competition assays using the CTH peptide were performed on endogenous TPC1 channels in vacuoles isolated from Col-0 plants. Peptides were dissolved at 10 mM in bath solution supplemented with 1 % DMSO and 0.1 % pluronic, and diluted >600-fold for application in patch-clamp recordings. Currents were recorded either in the whole-vacuolar or cytosolic side-out configuration of the patch-clamp technique, using an EPC10 amplifier and the program PULSE (HEKA electronics, Lambrecht, Germany). Recordings and data analysis were performed as described earlier. Relative open probabilities (P o) were determined from tail currents at −53 mV, following pulses to the different test voltages. Tail currents were normalized to the maximum values at 1 mM Ca^2+, plotted as a function of the applied test voltage, and fitted according to the Boltzmann equation: PO=A/1+exp^zF/RT·(Vo-V) where V o and z are parameters for the voltage at half-maximum open probability and the apparent number of gating charges, respectively, and A describes the maximum conductance that is reached under the experimental conditions.

[2] = tested on: tonoplast; experiment: Confocal localization of GFP-fusions in tpc1-2 mesophyll protoplasts; format: cell-based, Arabidopsis thaliana; settings: GFP-fusion in tpc1-2 mesophyll protoplasts
Procedure: as §1
Fluorescence signals were detected and documented with a TCS SP2 confocal laser scanning microscope and the Leica Confocal Software (Leica Microsystems). A 488 nm Argon laser was used for excitation of GFP and of the auto-fluorescence of chlorophyll. GFP-signals were detected from 500 to 556 nm and chlorophyll signals from 675 to 767 nm. Venus was excited with a […] and detected in the range from 520 to 556 nm, the corresponding chlorophyll signals were detected from 637 to 736 nm. Images were processed with Photoshop (Adobe Systems).

[3] = tested on: excised cytosolic side-out vacuolar membrane patches of tpc1-2 cells; experiment: Excised cytosolic side-out patch recordings of TPC1 variants; format: cell-based, Arabidopsis thaliana; settings: for current remaining following reduction of Ca2+ from 1 mM to 200 µM: at 107 mV, Ca2+ reduced from 1 mM to 200 µM (n = 3–7)
Procedure: as §1, §2

[4] = tested on: TPC1 subunits co-expressed in Nicotiana benthamiana leaves; experiment: Bimolecular fluorescence complementation (Split Venus BiFC); format: cell-based; settings: N. benthamiana leaves, plate reader and confocal
Procedure: For BiFC analyses the gateway entry vector pENTR-D-TOPO and the destination vectors pDEST–^GWVYCE and pDEST–^GWVYNE were used for C-terminal fusion of the Venus C- and N-terminus, respectively, and pDEST–VYCE(R)^GW and pDEST–VYNE(R)^GW for N-terminal tagging.
BiFC studies were performed as described using a Split Venus system. The Agrobacterium strain C58C1 [42] harboring the plasmid of interest and the helper strain p19 [43] were grown in LB medium supplemented with 100 µg/ml Kanamycin at 29 °C overnight. The cultures were brought to an optical density (OD600) of 1.0 in infiltration buffer (10 mM MES, 10 mM MgCl2, 100 µM acetosyringone, pH 5.7/KOH) and the combinations to test for co-expression mixed at equal amounts. The p19 helper strain (OD600 = 1.0) was added to these mixtures in a 1:1 ratio. Suspensions were incubated for 2 h before infiltration into the abaxial side of 6-week-old N. benthamiana leaves. Each leaf was infiltrated with several plasmid combinations and a positive control (TPC1/pDEST-^GWVYCE and TPC1/pDEST-^GWVYNE) as well as a negative control (p19 alone) at separated areas to monitor comparability of the transient expression and to define background fluorescence.
For fluorescence quantification leaf disks (Ø 6 mm) were cut out of the infiltrated areas with a cork borer 2.5 day after infiltration. Leaf disks were placed upside-down in a black 96-well plate prefilled with 70 µl H2O per well to minimize dehydration effects. Fluorescence was measured with a plate-reader (Infinite F200, Tecan) with an excitation wavelength of 485 ± 20 nm and an emission wavelength of 525 ± 25 nm.

Row | Molecule | whole-vacuolar SV currents [1] | subcellular localization of GFP-fusion [2] | reduction of whole-vacuolar current amplitude [1] [%] | current remaining following reduction of Ca2+ from 1 mM to 200 µM [3] [%] | other results
1 | B1 | wild type like | localized in the tonoplast |  |  | 
2 | B2 | loss of SV currents to a similar extent as TPC1-3LP |  |  |  | single-channel conductance ([3]; excised cytosolic side-out patch, tpc1-2 cell, linear fit): 58 pS; macroscopic currents in excised patches ([3]; excised patches, tpc1-2 cells): no macroscopic currents were resolved
3 | B3 |  |  | 58 | 24 ± 4 | 
4 | B4 |  |  |  | 53 ± 10 | BiFC signal [4]: BiFC signals from wild type channels could be observed
5 | B5 |  |  | 53 | 28 ± 3 | 
6 | B6 | stayed silent | localized in the tonoplast |  |  | 
